Where no end group is shown, it is not given here. membrane = cellular membrane (peptide-display support, peptide attached at its C-terminus via a stable linker); glass slide = glass slide (microarray support, peptide conjugated at its N-terminus via a PEG linker); stable linker = not defined here; PEG linker = not defined here; linker = not defined here; PEG = not defined here

Assay [1] concerns the target T1, rhIntegrin α11β1 (human, UniProt Q9UKX5 23-1141; P05556 21-728, limits assumed).
T1 construct: Bought from R&D Systems; also called α11β1 receptor; ITGA11 receptor
The experiment in a line: peptide microarray: peptide fixed by its N-terminus through a PEG linker, incubated with α11β1 receptor (10 µg/ml), anti-ITGA11 antibody and fluorescent secondary antibody, signal of the antibodies alone subtracted. How it is done: (§1) Peptide microarray was prepared by conjugating peptides at their N-terminal to a glass slide using a PEG linker. […] For the binding studies, the peptide array was blocked with 3% BSA in TBST for 2 hours. Then the array slide was washed 5 times in TB ST and subsequently incubated with the target receptor (α11β1, 10 μg/ml dissolved in PBS) for 1 hour at 37° C. The slides were washed with TBST and then incubated with primary antibody (1 μg/ml) against ITGA11 for 1 hour at 37° C. Then slides were washed and incubated with fluorescent dye labeled secondary antibodies for 30 minutes. The slides were washed with TBST and water and then dried and scanned with a microarray scanner to detect binding of the peptides. The enlightened spots were analyzed using ImageJ software. To determine the unspecific binding, a peptide array was incubated with only primary and secondary antibodies without the receptor incubation step. Then, the signal of unspecific binding was subtracted from the total binding to calculate specific binding.

In assay [2] the target is T2, α5β1 human recombinant protein (human, UniProt P08648 42-995; P05556 21-728).
T2 construct: Bought from R&D Systems; also called α5β1 receptor; integrin α5β1
The experiment in a line: peptide microarray incubated with α5β1, anti-α5 detection. On the procedure:
as §1, with “(α5β1,” for “(α11β1,”, “ITGA5” for “ITGA11”
To find out the amino acids responsible for the peptide binding and the most efficient binding peptides, peptide microarrays were developed with alanine replacement and shorter peptides. In addition, a peptide having the sequence […] (SEQ ID NO:11) (AV3-Cys) was developed. For AV3 (RYYRITY (SEQ ID NO:8)), the peptide microarray was incubated with […] receptor, which was captured by anti-α5 and then fluorescent dye labeled secondary antibody. […] Replacement of T6 induced unspecific binding of the peptide to the incubating antibodies (FIG. 13).

The target of assay [3] is T2, α5β1 human recombinant protein. Briefly: overlapping peptides on membrane incubated with 5 µg/ml α5β1; bound receptor transferred and detected with anti-alpha5 antibody. How it is done: Peptides were attached to their c-terminal site using stable linker. […] The peptide-displaying […] membrane was soaked in methanol for 1 minute and rinsed in Tris-buffered saline (TBS) and washed three times. Then, the membrane was blocked with 3% BSA in 0.05% TWEEN®-20 containing TBS (TBST) for 3 hours at room temperature. Then, the membrane was washed for 10 minutes with TB ST and incubated with 5 μg/ml α5β1 human recombinant protein (R&D systems) in 3% BSA in TB ST for 1 hour at room temperature and then overnight at 4° C. Subsequently, the membrane was washed three times with TB ST. Thereafter, the bound receptor to the membrane was transferred to the PVDF membrane. To achieve this, first, the PVDF membrane was soaked in methanol for 1 minute and then blocked with 5% skimmed fat milk for 2 hours. Then, the membrane was incubated with primary anti-alpha5 integrin antibody (Sigma-Aldrich) for overnight in 5% skimmed milk. The membrane was washed three times with TBST and then incubated with anti-rabbit-HRP secondary antibody (Dako), washed and developed with chemiluminescence detection kit.
The domains 9 and 10 of FN were chosen to design peptides, as these domains were reported to be responsible for binding to the α5β1 receptor, as shown with the docking experiments (Nagae et al, 2012 J. Cell Biol. 131-140). The interaction studies were performed against human recombinant integrin α5β1 receptor and the bound proteins were transferred to another membrane and ITGA5 was detected with antibodies. Many sequences appeared to bind to the α5β1 receptor from human and mouse domains, the strongest binding was obtained with 2 sequences from human FN-III domain 10 as follows.

T1 sequence (Q9UKX5 23-1141 limits assumed, chain 1 of 2): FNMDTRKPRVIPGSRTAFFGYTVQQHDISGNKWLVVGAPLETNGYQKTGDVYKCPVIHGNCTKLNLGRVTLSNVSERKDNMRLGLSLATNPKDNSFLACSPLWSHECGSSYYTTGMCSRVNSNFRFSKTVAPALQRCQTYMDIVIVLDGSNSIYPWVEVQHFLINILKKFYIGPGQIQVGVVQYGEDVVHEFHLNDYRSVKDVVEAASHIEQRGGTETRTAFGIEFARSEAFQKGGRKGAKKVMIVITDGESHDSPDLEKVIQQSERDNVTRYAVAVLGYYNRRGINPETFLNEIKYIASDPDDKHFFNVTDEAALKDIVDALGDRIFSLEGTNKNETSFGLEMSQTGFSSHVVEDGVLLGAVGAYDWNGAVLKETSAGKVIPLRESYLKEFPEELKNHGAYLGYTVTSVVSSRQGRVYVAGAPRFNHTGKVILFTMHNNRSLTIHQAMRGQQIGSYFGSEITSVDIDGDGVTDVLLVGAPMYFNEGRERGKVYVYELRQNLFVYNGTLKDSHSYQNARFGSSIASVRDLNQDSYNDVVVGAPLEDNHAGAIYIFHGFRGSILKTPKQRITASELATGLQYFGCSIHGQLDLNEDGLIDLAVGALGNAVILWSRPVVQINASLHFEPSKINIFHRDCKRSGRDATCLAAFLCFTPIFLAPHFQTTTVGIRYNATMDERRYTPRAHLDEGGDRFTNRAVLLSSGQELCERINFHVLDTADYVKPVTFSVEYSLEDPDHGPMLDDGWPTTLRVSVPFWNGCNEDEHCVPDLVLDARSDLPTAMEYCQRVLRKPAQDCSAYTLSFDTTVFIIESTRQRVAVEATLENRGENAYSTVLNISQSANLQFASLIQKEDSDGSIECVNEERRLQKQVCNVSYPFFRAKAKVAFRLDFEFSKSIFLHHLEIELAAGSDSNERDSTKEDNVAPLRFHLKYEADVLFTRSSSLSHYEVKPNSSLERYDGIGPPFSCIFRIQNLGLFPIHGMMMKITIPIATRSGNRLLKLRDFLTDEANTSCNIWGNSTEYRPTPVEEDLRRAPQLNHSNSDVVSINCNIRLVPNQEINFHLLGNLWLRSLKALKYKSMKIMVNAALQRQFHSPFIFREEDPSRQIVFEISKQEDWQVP
T1 sequence (P05556 21-728 limits assumed, chain 2 of 2): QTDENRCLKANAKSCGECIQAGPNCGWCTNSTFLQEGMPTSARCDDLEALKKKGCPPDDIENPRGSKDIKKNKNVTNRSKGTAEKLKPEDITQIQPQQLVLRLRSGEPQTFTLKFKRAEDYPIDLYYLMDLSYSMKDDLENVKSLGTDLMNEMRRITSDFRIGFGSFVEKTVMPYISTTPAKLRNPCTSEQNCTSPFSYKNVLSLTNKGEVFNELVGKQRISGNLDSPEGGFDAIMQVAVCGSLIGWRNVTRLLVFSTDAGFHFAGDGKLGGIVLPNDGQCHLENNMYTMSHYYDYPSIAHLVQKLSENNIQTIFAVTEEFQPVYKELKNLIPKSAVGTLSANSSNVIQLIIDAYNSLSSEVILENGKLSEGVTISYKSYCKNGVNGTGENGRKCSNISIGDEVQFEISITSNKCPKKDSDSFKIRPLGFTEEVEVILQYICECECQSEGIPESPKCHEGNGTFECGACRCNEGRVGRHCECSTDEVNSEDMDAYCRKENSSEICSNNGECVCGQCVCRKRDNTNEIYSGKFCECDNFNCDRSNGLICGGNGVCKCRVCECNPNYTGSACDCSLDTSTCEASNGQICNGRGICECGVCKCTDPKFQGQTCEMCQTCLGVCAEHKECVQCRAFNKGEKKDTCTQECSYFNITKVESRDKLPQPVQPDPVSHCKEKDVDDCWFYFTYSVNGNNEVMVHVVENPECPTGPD
T2 sequence (P08648 42-995 limits assumed, chain 1 of 2): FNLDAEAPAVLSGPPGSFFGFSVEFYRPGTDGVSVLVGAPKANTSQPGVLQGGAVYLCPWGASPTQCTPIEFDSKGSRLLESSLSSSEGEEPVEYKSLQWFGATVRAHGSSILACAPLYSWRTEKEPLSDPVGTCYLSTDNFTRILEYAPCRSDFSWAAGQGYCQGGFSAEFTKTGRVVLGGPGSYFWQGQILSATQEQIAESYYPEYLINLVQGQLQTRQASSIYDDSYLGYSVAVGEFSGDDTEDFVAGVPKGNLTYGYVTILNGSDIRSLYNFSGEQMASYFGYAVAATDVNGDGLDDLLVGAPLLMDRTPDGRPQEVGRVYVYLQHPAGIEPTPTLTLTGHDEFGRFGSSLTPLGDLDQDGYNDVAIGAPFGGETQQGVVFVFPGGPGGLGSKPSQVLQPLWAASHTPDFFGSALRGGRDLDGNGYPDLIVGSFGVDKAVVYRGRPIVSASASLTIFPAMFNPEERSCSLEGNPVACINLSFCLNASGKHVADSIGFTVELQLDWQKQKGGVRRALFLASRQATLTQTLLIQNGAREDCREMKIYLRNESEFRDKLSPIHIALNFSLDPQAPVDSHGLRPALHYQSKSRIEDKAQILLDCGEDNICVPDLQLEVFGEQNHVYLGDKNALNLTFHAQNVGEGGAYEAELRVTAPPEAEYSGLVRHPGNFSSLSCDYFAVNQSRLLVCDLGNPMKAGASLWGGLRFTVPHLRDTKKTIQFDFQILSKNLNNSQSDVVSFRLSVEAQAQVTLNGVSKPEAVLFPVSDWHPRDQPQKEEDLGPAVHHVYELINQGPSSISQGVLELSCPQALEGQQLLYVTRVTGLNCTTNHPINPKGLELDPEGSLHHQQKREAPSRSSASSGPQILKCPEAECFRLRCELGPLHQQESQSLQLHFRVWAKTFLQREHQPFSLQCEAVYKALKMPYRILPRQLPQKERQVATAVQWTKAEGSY
T2 sequence (P05556 21-728 limits assumed, chain 2 of 2): as the sequence (P05556 21-728 limits assumed, chain 2 of 2) above

{glass slide-PEG}-LTEWLRWFNS (reading uncertain): the binding result in assay [1] is on record as “binds”.

As for {glass slide-PEG}-GLTEWLRWFN (reading uncertain), the binding result in assay [1] was “binds”.

B1: SGLTEW (peptide)
peptide: {glass slide-PEG linker}-SGLTEW
modifications: reading uncertain
notes: chain-length variant of AXI-I (positions 1-6); fixed on the array by its N-terminus through a PEG linker
As to B1, in assay [1], the binding result is recorded as “no binding”. Turning to {glass slide-PEG}-LRWFNS (reading uncertain), the binding result in assay [1] is given as “binds”.

B2: SGLTEWLR (peptide)
peptide: {glass slide-PEG linker}-SGLTEWLR
modifications: reading uncertain
notes: chain-length variant of AXI-I (positions 1-8); fixed on the array by its N-terminus through a PEG linker
Regarding B2, the binding result in assay [1] is “no binding”. Take {glass slide-PEG linker}-SGLTEWLRW (reading uncertain): the binding result in assay [1] is listed as “binds”. Take {glass slide-PEG}-RYARITY (reading uncertain) [AV3 with Y3 replaced by alanine]: in assay [2], the binding result is “no binding”.

B3: RYYRATY (peptide)
peptide: {glass slide-PEG}-RYYRATY
modifications: reading uncertain
notes: also called AV3 with I5 replaced by alanine
For the molecule B3, the binding result in assay [2] was “binds”.

B4: AYYRITY (peptide)
peptide: {glass slide-PEG}-AYYRITY
modifications: reading uncertain
notes: also called AV3 with R1 replaced by alanine
In the case of B4, in assay [2], the binding result is listed as “binds”.

B5: RYYRITA (peptide)
peptide: {glass slide-PEG}-RYYRITA
modifications: reading uncertain
notes: also called AV3 with Y7 replaced by alanine
On to B5, for which the binding result in assay [2] was “binds”.

B6: RAYRITY (peptide)
peptide: {glass slide-PEG}-RAYRITY
modifications: reading uncertain
notes: also called AV3 with Y2 replaced by alanine
Consider B6, for which the binding result in assay [2] is reported as “binds”.

B7: RYYAITY (peptide)
peptide: {glass slide-PEG}-RYYAITY
modifications: reading uncertain
notes: also called AV3 with R4 replaced by alanine
On to B7, for which the binding result in assay [2] is recorded as “binds”.

{glass slide-PEG}-EWLRWFNS (reading uncertain): the binding result in assay [1] was “binds”.

Turning to {glass slide-PEG linker}-SGLTEWLRWFN (reading uncertain), the binding result in assay [1] is listed as “binds”. With GDSPASSKPISI-{linker-membrane} (reading uncertain), the binding result in assay [3] was “binds”. Take {glass slide-PEG}-LTEWLRWF (reading uncertain): the binding result in assay [1] is on record as “binds”.

B8: RWFNS (peptide)
peptide: {glass slide-PEG}-RWFNS
modifications: reading uncertain
notes: chain-length variant of AXI-I (positions 8-12); fixed on the array by its N-terminus through a PEG linker
For B8, in assay [1], the binding result was “binds”. As for {glass slide-PEG linker}-WLRWFNS (reading uncertain), the binding result in assay [1] was “binds”.

With {glass slide-PEG}-GLTEWLRWFNS (reading uncertain), in assay [1], the binding result is given as “binds”.

B9: SGLTE (peptide)
peptide: {glass slide-PEG}-SGLTE
modifications: reading uncertain
notes: chain-length variant of AXI-I (positions 1-5); fixed on the array by its N-terminus through a PEG linker
Regarding B9, the binding result in assay [1] is recorded as “no binding”. {glass slide-PEG}-AGLTEWLRWFNS (reading uncertain, Alanine at position 1 of AXI-I): in assay [1], the binding result is recorded as “binds”. As to {glass slide-PEG linker}-SGLTEWLAWFNS (reading uncertain, Alanine at position 8 of AXI-I), in assay [1], the binding result was “binds”. As for {glass slide-PEG linker}-SGLTEALRWFNS (reading uncertain, Alanine at position 6 of AXI-I), in assay [1], the binding result is “binds”. {glass slide-PEG}-SALTEWLRWFNS (reading uncertain, Alanine at position 2 of AXI-I): the binding result in assay [1] is listed as “binds”. On to {glass slide-PEG}-SGLTAWLRWFNS (reading uncertain, Alanine at position 5 of AXI-I), for which the binding result in assay [1] is “binds”.

{glass slide-PEG linker}-SGLTEWARWFNS (reading uncertain, Alanine at position 7 of AXI-I): the binding result in assay [1] was “binds”.

As to {glass slide-PEG linker}-SGLTEWLRAFNS (reading uncertain, Alanine at position 9 of AXI-I), the binding result in assay [1] is recorded as “binds”. Take {glass slide-PEG}-SGLAEWLRWFNS (reading uncertain, Alanine at position 4 of AXI-I): the binding result in assay [1] is on record as “binds”.

B10: SGATEWLRWFNS (peptide)
peptide: {glass slide-PEG}-SGATEWLRWFNS
modifications: reading uncertain
notes: alanine-scan variant of AXI-I; fixed on the array by its N-terminus through a PEG linker; also called AXI-I with L3 replaced by alanine
On to B10, for which the binding result in assay [1] is “binds”. On the same count and under the same terms, for {glass slide-PEG linker}-SGLTEWLRWFNA (reading uncertain, Alanine at position 12 of AXI-I) the value was “binds”. Consider TTVRYYRITYGE-{stable linker-membrane} (reading uncertain), for which the binding result in assay [3] was “binds”. Take {glass slide-PEG linker}-TEWLRWFNS (reading uncertain): in assay [1], the binding result is listed as “binds”. Regarding SIELTNLLVRYS-{stable linker-membrane} (reading uncertain), the binding result in assay [3] is “binds”.

Turning to {glass slide-PEG linker}-SGLTEWLRWF (reading uncertain), the binding result in assay [1] was “binds”.

The values are drawn from patent US20240025965A1 (UNIVERSITEIT TWENTE, published 2024).
